The values that follow come from paper PMC1839165, “Virus Evolution Reveals an Exclusive Role for LEDGF/p75 in Chromosomal Tethering of HIV” (PLoS Pathogens, 2007).

To fix the notation:
B1: MBP-IBD (domain or fragment, human, UniProt O75475-1 347-429, looked up)
chain: SMDSRLQRIHAEIKNSLKIDNLDVNRCIEALDELASLQVTMQQAQKHTEMITTLKKIRRFKVSQVIMEKSTMLYNKFKNMFLV
notes: the introduction gives amino acids 347 to 429 for the IBD; GenBank NM_033222; The limits are those printed for the minimal IBD in the introduction; also called IBD-MBP; source: E. coli BL21 (plasmid pMBP-IBD), purified
B2: C-terminal His6-tagged HIV-1 integrase, wild type (enzyme, HIV-1 (NL4-3), UniProt P12497 1148-1435, looked up)
chain: FLDGIDKAQEEHEKYHSNWRAMASDFNLPPVVAKEIVASCDKCQLKGEAMHGQVDCSPGIWQLDCTHLEGKVILVAVHVASGYIEAEVIPAETGQETAYFLLKLAGRWPVKTVHTDNGSNFTSTTVKAACWWAGIKQEFGIPYNPQSQGVIESMNKELKKIIGQVRDQAEHLKTAVQMAVFIHNFKRKGGIGGYSAGERIVDIIATDIQTKELQKQITKIQNFRVYYRDSRDPVWKGPAKLLWKGEGAVVIQDNSDIKVVPRRKAKIIRDYGKQMAGDDCVASRQDED
notes: HIV-1 NL4-3 integrase (IN), the cut product of the Gag-Pol polyprotein; GenBank U26942, base pairs 3608 through 4471; the results call it IN^s (IN from a synthetic gene); also called IN-WT; WT IN^s; not shown: His6, C-terminal, kept
B3: MBP-Δ325 (domain or fragment, human, UniProt O75475-1 325-530, looked up)
chain: EQQNKDEGKKPEVKKVEKKRETSMDSRLQRIHAEIKNSLKIDNLDVNRCIEALDELASLQVTMQQAQKHTEMITTLKKIRRFKVSQVIMEKSTMLYNKFKNMFLVGEGDSVITQVLNKSLAEQRQHEEANKTKDQGKKGPNKKLEKEQTGSKTLNGGSDAQDGNQPQHNGESNEDSKDNHEASTKKKPSSEERETEISLKDSTLDN
notes: GenBank NM_033222; also called Δ325-MBP; Δ325 fragment; source: E. coli BL21 (plasmid pMBP-Δ325), purified

In assay [1] the target is C-terminal His6-tagged HIV-1 integrase A128T (HIV-1 (NL4-3)). As to the kind of experiment: AlphaScreen or HTRF; 300 nM C-terminal His6-tagged IN with increasing MBP-Δ325 (30 to 300 nM); Ni-chelate acceptor beads, anti-MBP donor beads; 25 mM Tris/HCl pH 7.3, 150 mM NaCl, 1 mM MgCl2, 0.01% Tween-20, 0.1% BSA; room temperature. For orientation: In Alpha technology, singlet oxygen from a donor bead excites a nearby acceptor bead.

Assay [2] addresses C-terminal His6-tagged HIV-1 integrase A128T/E170G (HIV-1 (NL4-3)). The assay is described as above.
The target of assay [3] is C-terminal His6-tagged HIV-1 integrase E170G (HIV-1 (NL4-3)). Described as above.
The target in assay [4] is B2. The assay is described as follows: pull-down; 6 μg C-terminal His6-tagged IN on Ni-NTA-agarose; 6 μg LEDGF/p75, MBP-IBD or MBP-Δ325 added; 25 mM Tris-HCl pH 7.4, 0.1% Nonidet P-40, 20 mM imidazole, 150 mM NaCl, 1 mM MgCl2, BSA; 4 h at 4 °C; SDS-PAGE, Coomassie Blue. As to conditions: both partners purified.
A further assay addresses T1, Nontagged LEDGF/p75 (human, UniProt O75475-1 1-530).
T1 construct: LEDGF/p75, human, 530 amino acids, GenBank NM_033222; also called recombinant LEDGF/p75; full-length LEDGF/p75; source: E. coli BL21(DE3) (plasmid pCPnat75), purified
The description is as above. As to conditions: both partners purified.

The target of assay [5] is B2. The assay is described as follows: AlphaScreen or HTRF; 30 nM C-terminal His6-tagged IN with increasing MBP-Δ325 (30 to 300 nM); Ni-chelate acceptor beads, anti-MBP donor beads; 25 mM Tris/HCl pH 7.3, 150 mM NaCl, 1 mM MgCl2, 0.01% Tween-20, 0.1% BSA; room temperature. As to conditions: both partners purified.

For the molecule “MBP-Δ325 (from UniProt O75475-1 325-530) (domain or fragment)”, the fold reduction of the AlphaScreen signal compared with IN-WT (300 nM IN) is 2 fold in assay [1] and 3 fold in assay [3]. The same molecule came in with a fold reduction of the AlphaScreen signal compared with IN-WT (300 nM IN, 300 nM MBP-Δ325) in assay [2] of 8 fold.

Consider B1, for which the binding result in assay [4] was “binds”.

In the case of B2, the binding result with Nontagged LEDGF/p75 is “binds”.

As to B3, the binding result in assay [5] is listed as “binds”.
